# Laboratory results from patent US20260263521A1, “ANTI-CD200R1 ANTIBODY AND USE THEREOF” (AIMED BIO INC., priority 2023, published 2026).
# Positions count from the first letter of the chain named. Numbers in names are those of the source.
# T1: CD200R1 on HH (CRL-2105) cells (Homo sapiens, UniProt Q8TD46)
# T1 construct: HH (CRL-2105) cells, which endogenously express CD200R1; host or cells: HH (CRL-2105) cells
# T1 sequence (Q8TD46 25-348): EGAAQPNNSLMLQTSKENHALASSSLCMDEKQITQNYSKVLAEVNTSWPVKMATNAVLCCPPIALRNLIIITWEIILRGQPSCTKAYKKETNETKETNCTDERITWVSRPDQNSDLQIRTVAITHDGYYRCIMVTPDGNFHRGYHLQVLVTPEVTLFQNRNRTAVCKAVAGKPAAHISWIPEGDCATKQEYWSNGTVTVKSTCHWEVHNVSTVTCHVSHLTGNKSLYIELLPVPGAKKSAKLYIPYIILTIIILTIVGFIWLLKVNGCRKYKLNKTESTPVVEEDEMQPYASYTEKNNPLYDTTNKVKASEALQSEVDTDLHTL
# T2: CD200R1 on Jurkat-CD200R1 cells (Homo sapiens, UniProt Q8TD46)
# T2 construct: host or cells: Jurkat
# T2 sequence (Q8TD46 25-348): T1 sequence (Q8TD46 25-348)
# T3: human CD200R1 (Homo sapiens, UniProt Q8TD46)
# T3 sequence (Q8TD46 25-348): T1 sequence (Q8TD46 25-348)
# B1: ch1F1: clone discovered using hybridoma technology (1F1), tested in IgG1 form (antibody, V domains shown)
# VH: QVQLQQPGAEFVKPGAPVKLSCKASGYTFTSYWMNWVKQRPGRGLEWIGRIDPADSEIHYNQKFKDKATLTVDKSSSTAYIQFSSLTSEDSAVYYCARSGGWLPGFAYWGQGTLVTVSA
# VL: ENVLTQSPAIMSASPGEKVTMTCSASSSLIYMHWYQQKSSTSPKLWIYDTSKLASGVPGRFSGSGSGNSYSLTINSMEAEDVATYYCFQGSGYPLMYTFGGGTKLEIK
# B2: P001009v2: P001009 variant, LC S52 and LC D93 substituted with K and R; VH SEQ ID NO: 79 (antibody, V domains shown)
# VH: EVQLLESGGGLVQPGGSLRLSCAASGFTFSSYDMSWVRQAPGKGLEWVSWISHGGGSIYYADSVKGRFTISRDNSKNTLYLQMNSLRAEDTAVYYCARDAPAYSAPLFDYWGQGTLVTVSS
# VL: QSVLTQPPSASGTPGQRVTISCSGSSSNIGNNAVNWYQQLPGTAPKLLIYYDKNRPSGVPDRFSGSKSGTSASLAISGLRSEDEADYYCAAWDRSLSGYVFGGGTKLTVL
# B3: P001009v4: P001009 variant, LC N31 substituted with K; VH SEQ ID NO: 79 (antibody, V domains shown)
# VH: B2 VH
# VL: B2 VL with N32K, K53S, R94D
# B4: H3-Y102K: P001018 scFv mutant, SEQ ID NO: 164 (protein)
# scFv: QVQLVQSGAEVKKPGASVKVSCKASGYTFTSYVMHWVRQAPGQGLEWMGYINPYNDDTNYNEKFKGRVTMTRDTSTSTVYMELSSLRSEDTAVYYCAREDYYGSRWGKWGQGTLVTVSSGGGGSGGGGSGGGGSDIVLTQSPASLAVSPGQRATITCRASKSVSTSGYSYMHWYQQKPGQPPKLLIYLASNLESGVPARFSGSGSGTDFTLTINPVEANDTANYYCQHSRELLTFGQGTKVEIK
# B5: L3-R92H: P001018 scFv mutant, SEQ ID NO: 166 (protein)
# scFv: B4 scFv with K108Y, R230H
# B6: L3-R92S: P001018 scFv mutant, SEQ ID NO: 167 (protein)
# scFv: B4 scFv with K108Y, R230S
# B7: L3-L94S: P001018 scFv mutant, SEQ ID NO: 168 (protein)
# scFv: B4 scFv with K108Y, L232S
# B8: L3-L95D: P001018 scFv mutant, SEQ ID NO: 170 (protein)
# scFv: B4 scFv with K108Y, L233D
# B9: L3-L94H: P001018 scFv mutant, SEQ ID NO: 169 (protein)
# scFv: B4 scFv with K108Y, L232H
# B10: L3-T96R: P001018 scFv mutant, SEQ ID NO: 171 (protein)
# scFv: B4 scFv with K108Y, T234R
# B11: H3-Y102T: P001018 scFv mutant, SEQ ID NO: 165 (protein)
# scFv: B4 scFv with K108T
# Experiments:
# [1] = target: T1, CD200R1 on HH (CRL-2105) cells; assay: Cell binding assay (flow cytometry), HH cells; format: cell-based; conditions: HH cells; 500 nM; IgG1 form
# Experimental: (§1) The binding ability of the antibodies identified using unique multifaceted antibody discovery technology was identified in HH (CRL-2105) cells, which endogenously express CD200R1, and Jurkat-CD200R1 cells (Source: DiscoverX), which were generated by intranuclear injection of CD200R1 cDNA.
# (§2) HH and Jurkat-CD200R1 cells were maintained in RPMI 1640 medium supplemented with 10% heat-inactivated FBS and 1% Penicillin/Streptomycin (P/S). The cells were washed by centrifugation at 130 g for 5 minutes. The cells were seeded onto 96-well round-bottom plates (SPL, #34296) at a density of 1×10^5 cells/well in Flow cytometry staining buffer (Invitrogen, #00-4222-26) or FACS buffer. The cells were treated with all 16 substances and the positive control LY3454738 (US 2020/0087395, I-4P, at Eli Lilly) a concentration of 500 nM in the IgG1 form. After incubation for 1 hour at 4° C., the cells were treated with Alexa-647 Goat anti-human IgG (H+L) cross-adsorbed secondary antibody (Invitrogen, #A21445) and incubated at 4° C. for an additional 30 minutes. […]
# (§3) Cell-binding ability was determined in the same manner as in Example 12. For the six active substances primarily selected in Example 12, the isotype was changed to IgG4 or the LALAPG gene was mutated, and binding activity was determined in the two cell lines mentioned above.
# (§4) Binding ability was determined in HH, an endogenous T cell line with high CD200R1 expression, and two additional overexpressing cell lines: U937-CD200R overexpressing cells, generated by intranuclear injection of human CD200R1 CDNA into the monocytic cell line U937 (CRL-1593.2) (Source: UMC Utrecht, the Netherlands) and Jurkat-CD200R overexpressing cells, were also cells engineered using a similar method.
# (§5) All cell lines were maintained in RPMI 1640 medium supplemented with 10% heat-inactivated FBS and 1% penicillin/streptomycin (P/S) and cell binding was determined in the same manner as in Example 12. […]
# (§6) Specific binding ability was determined using P001009 WT and antibody-optimized mutants, P001009v1, P001009v2, P001009v3, and P001009v4. […]
# [2] = target: T2, CD200R1 on Jurkat-CD200R1 cells; assay: Cell binding assay (flow cytometry), Jurkat-CD200R1 cells; format: cell-based; conditions: Jurkat-CD200R1 cells; 500 nM; IgG1 form
# Experimental: as §1, §2, §3, §4, §5, §6
# human CD200R1 [3] = target: T3, human CD200R1; assay: ELISA binding to human CD200R1; conditions: for binding ability to human CD200R1 compared to parent: ELISA, Example 14; for affinity compared with P001018 clone: scFv mutants, antigen binding (ELISA) and cell binding (FACS)
# Experimental: 96-well plates were coated with human CD200R1 (R&D systems, 3414-CD) and mouse CD200R1 protein (R&D systems, 2554-CD) at a concentration of 2 μg/mL at 4° C. for 16 hours and then were blocked with 3% skim milk. The result was treated with the antibodies at concentrations of 300 nM, 60 nM, 12 nM, 2.4 nM, 0.48 nM, 0.096 nM, and 0.0192 nM, and reacted at room temperature for 2 hours.
# The result was washed with PBST and distilled water, the samples were bound with a goat-derived HRP-conjugated anti-human antibody (Invitrogen, 31482, Goat anti-Human IgG F(ab′)2 Secondary Antibody, HRP) for 1 hour at room temperature, and then washed again with PBST and distilled water. Color was developed with a TMB substrate solution (Thermo Scientific, 34029, 1-Step™ TMB-ELISA Ultra Substrate Solution). The color reaction was stopped with stop solution (Invitrogen, SS04, ELISA Stop Solution). The absorbance was measured at an optical density of 450 nm.
# human CD200R1 [4] = target: T3, human CD200R1; assay: SPR binding kinetics, human CD200R1; conditions: hCD200R1-his captured on anti-His CM5 chip, 1:1 Langmuir fit
# Experimental: (§7) The CD200R1-specific binding ability of the antibodies (P001009 wt, P001009 v1, P001009 v2, P001009 v3, P001009 v4) selected in Example 14 was analyzed using surface plasma resonance (SPR). For the experiment, 30 μg/mL of an anti-histidine antibody was conjugated to a CM5 biacore chip via an amine bond while allowing to flow at 10 μl/min (10,000 RU). Then, 0.25 μg/mL of human or cynomolgus CD200R1 with dual His-tags was captured onto the completed chip for 60 seconds, and the binding ability of each antibody was analyzed. All experiments were performed by association of antibodies for 120 seconds and dissociation of antibodies for 600 seconds. The resulting graphs were fitted using a 1:1 Langmuir binding kinetic model (FIG. 16), and the kinetics of each antibody were calculated.
# monkey CD200R1 = assay: ELISA binding to monkey CD200R1; conditions: Example 14
# From the text: Therefore, the LC D51 and LC D92 sequences were not substituted during the optimization process. However, since LC N30 and LC N31 can play an important role in the specific binding of antibodies as paratopes, the sequences were substituted and optimized. Through rational design, LC S52 and LC S94 were substituted with K and R, respectively, to derive P001009v1, and LC S52 and LC D93 were substituted with K and R, respectively, to derive P001009v2. Further, P001009v3, in which LC N30 was substituted with S, and P001009v4, in which LC N31 was substituted with K, were derived and produced, and the binding ability to human, mouse, and monkey CD200R1 was analyzed by ELISA (FIG. 15). […] Both […] and variants thereof had very weak binding ability to mouse CD200R1 at concentrations up to 300 nM.
# cynomolgus CD200R1 = assay: SPR binding kinetics, cynomolgus CD200R1; conditions: cynomolgus CD200R1-his captured on anti-His CM5 chip, 1:1 Langmuir fit
# Experimental: as §7
molecule,measurement,setting,value
B1,cell binding ability,[1],significant binding ability
same,cell binding ability,[2],significant binding ability
B2,binding ability to human CD200R1 compared to parent,human CD200R1 [3],reduced
same,Ka,human CD200R1 [4],7.52e+06 M⁻¹ s⁻¹
same,binding ability to monkey CD200R1 compared to parent,monkey CD200R1,significantly improved
same,Ka,cynomolgus CD200R1,2.82e+06 M⁻¹ s⁻¹
B3,binding ability to human CD200R1 compared to parent,human CD200R1 [3],reduced
same,Ka,human CD200R1 [4],6.74e+06 M⁻¹ s⁻¹
same,binding ability to monkey CD200R1 compared to parent,monkey CD200R1,improved
same,Ka,cynomolgus CD200R1,3.71e+06 M⁻¹ s⁻¹
B4,affinity compared with P001018 clone,human CD200R1 [3],enhanced affinity
B5,affinity compared with P001018 clone,human CD200R1 [3],enhanced affinity
B6,affinity compared with P001018 clone,human CD200R1 [3],enhanced affinity
B7,affinity compared with P001018 clone,human CD200R1 [3],enhanced affinity
B8,affinity compared with P001018 clone,human CD200R1 [3],enhanced affinity
B9,affinity compared with P001018 clone,human CD200R1 [3],enhanced affinity
B10,affinity compared with P001018 clone,human CD200R1 [3],enhanced affinity
B11,affinity compared with P001018 clone,human CD200R1 [3],enhanced affinity
